In the Human Domainome abundance scans (Beltran et al. 2025):

B1: Myocardin-related transcription factor A, residues 341 to 383; numbered along this chain, Q969V6 (parent)
chain: GALPANLDDMKVAELKQELKLRSLPVSGTKTELIERLRAYQDQ

Variants of: B1
Test: abundance fitness (aPCA) (normalised: wild type 0, dead -1); higher = more abundant; growth selection in yeast, the domain comes from the species named
Conditions: Homo sapiens

Abundance fitness, by site and new letter:
T31: P -0.074, V -0.035, Q -0.138, D 0.005, K -0.141, E 0.085, M -0.089, I 0.092, G -0.011, R 0.012, N -0.332, S -0.061, W -0.246, H -0.129, L -0.145, Y -0.193, A 0.098
L21: D 0.041, H 0.003, A 0.038, Q 0.061, R 0.057, W -0.283, S -0.089, E 0.098, F -0.177, G -0.067, C -0.229, P -0.593, N -0.08, T 0.094, V -0.004
E35: R -0.047, P -0.505, K 0.035, T -0.173, G 0.041, V -0.171, Q 0.398, Y 0.166, F -0.242, I -0.174, L 0.026, A 0.23, S 0.109, W -0.19
Q41: S 0.081, V 0.055, C 0.061, R 0.089, H -0.125, M 0.107, I -0.021, W 0.083, K 0.202, P 0.066, Y -0.307, L 0.069, F 0.222, G 0.262, N 0.18
L24: I -0.425, G -0.471, C -0.385, D -0.835, V -0.342, Y -1.02, M -0.091, A -0.27, R -0.436, H -0.979, P -0.639, W -0.751, Q -0.07
R38: K -0.138, T -0.233, Q -0.24, G -0.047, P -0.107, W -0.236, M -0.052, Y -0.053, D -0.588, I -0.086, S -0.126, L -0.224, C -0.301, F -0.626, E 0.074, A 0.2, H -0.201, V -0.152
P25: H -0.875, I 0.319, R -0.304, W -0.808, K -0.135, E -0.055, S -0.165, F -0.963, V -0.358, G -0.186, Q -0.167, D -0.197, Y -0.293, L -0.542, A -0.263
D42: C 0.045, A 0.205, E 0.137
L37: Q -0.631, K -0.455, T -0.416, E -0.504, G -0.303, D -0.298, C -0.404, R -0.462, M -0.165, V -0.3, A -0.435, N -0.327, W -0.403, S -0.419
G28: C -0.608, D -0.758, S -0.85, Q -0.659, A -1.02, V -1.38, P -1.13, W -1.03, H -1.18, E -0.628, L -1.06, T -1.56, M -0.957, Y -0.626, K -0.862
K30: G -0.494, V -0.509, E -0.269, W -0.6, F -0.463, A -0.403, Q -0.092, M -0.332, S -0.231, H -0.217, R 0.024, T -0.091, P -0.242, I -0.158, N -0.343, D -0.478
R22: P -0.561, E -0.163, A -0.099, Q -0.079, L -0.223, G -0.54, W -0.572, H -0.232, M -0.229, T -0.301, N -0.47, S -0.561
